Laboratory results: publication PMC5772683

Target: microtubules (MTs) assembled from bovine brain tubulin (bovine) (UniProt Q6B856)
Assay: co-sedimentation

**Q.** With “human Profilin-1 (PFN1), wildtype (from UniProt P07737 1-140) (natural protein)” as the substance, how does the Kd read?
**A.** 10.7 µM
